Assay results reported in US20150274820A1 (ESBATECH AN ALCON BIOMEDICAL RESEARCH UNIT, published 2015).

B1: 509-max (scFv)
scFv: EIVMTQSPSTLSASVGDRVIITCQASQNIRIWLSWYQQKPGKAPKLLIYKASTLESGVPSRFSGSGSGTEFTLTISSLQPDDFATYYCQNNAHYSTNGGTFGQGTKLTVLGGGGGSGGGGSGGGGSGGGGSEVQLVESGGGLVQPGGSLRLSCTASGFSLSSYYMCWVRQAPGKGLEWVGCLDYVGDTDYASWAKGRFTISKDASKNTVYLQMNSLRAEDTAVYYCARTDDSRGWGLNIWGQGTLVTVSS
notes: VL and VH tied by name; also called Protein Nr; 855
B2: 567-max (scFv)
scFv: EIVMTQSPSTLSASVGDRVIITCQADQSIYIWLSWYQQKPGKAPKLLIYKASTLESGVPSRFSGSGSGTQFTLTISSLQPDDFATYYCQNNAHYSTNGGTFGQGTKLTVLGGGGGSGGGGSGGGGSGGGGSEVQLVESGGGLVQPGGSLRLSCSVSGFSLSDYYMCWVRQAPGKGLEWVGCLDYFGSTDDASWAKGRFTISKDTSKNTVYLQMNSLRAEDTAVYYCARTDDSRGWGLNIWGQGTLVTVSS
notes: VL and VH tied by name; also called Protein Nr; 874
B3: 509-min (scFv)
scFv: EIVMTQSPSTLSASVGDRVIITCQASQNIRIWLSWYQQKPGKAPKLLIYKASTLESGVPSRFSGSGSGAEFTLTISSLQPDDFATYYCQNNAHYSTNGGTFGQGTKLTVLGGGGGSGGGGSGGGGSGGGGSEVQLVESGGGLVQPGGSLRLSCAASGFSLSSYYMCWVRQAPGKGLEWVSCLDYVGDTDYASWAKGRFTISRDNSKNTLYLQMNSLRAEDTAVYYCAKTDDSRGWGLNIWGQGTLVTVSS
notes: VL and VH tied by name; also called Protein Nr; 854
B4: 578min_max T84N_V89L (scFv)
scFv: EIVMTQSPSTLSASVGDRVIITCQASEIIHSWLAWYQQKPGKAPKLLIYLASTLASGVPSRFSGSGSGAEFTLTISSLQPDDFATYYCQNVYLASTNGANFGQGTKLTVLGGGGGSGGGGSGGGGSGGGGSEVQLVESGGGLVQPGGSLRLSCTASGFSLTDYYYMTWVRQAPGKGLEWVGFIDPDDDPYYATWAKGRFTISRDNSKNTLYLQMNSLRAEDTAVYYCAGGDHNSGWGLDIWGQGTLVTVSS
notes: the VH entry already carries T84N and V89L; tied by name; also called Protein No. 1008
B5: 578min_max T84N_V89L_DHP (scFv)
scFv: EIVMTQSPSTLSASVGDRVIITCQASEIIHSWLAWYQQKPGKAPKLLIYLASTLASGVPSRFSGSGSGAEFTLTISSLQPDDFATYYCQNVYLASTNGANFGQGTKLTVLGGGGGSGGGGSGGGGSGGGGSEVQLVESGGGSVQPGGSLRLSCTASGFSLTDYYYMTWVRQAPGKGLEWVGFIDPDDDPYYATWAKGRFTISRDNSKNTLYLQMNSLRAEDTATYYCAGGDHNSGWGLDIWGQGTTVTVSS
B6: 578minmax FW1.4_DHP (scFv)
scFv: EIVMTQSPSTLSASVGDRVIITCQASEIIHSWLAWYQQKPGKAPKLLIYLASTLASGVPSRFSGSGSGAEFTLTISSLQPDDFATYYCQNVYLASTNGANFGQGTKLTVLGGGGGSGGGGSGGGGSGGGGSEVQLVESGGGSVQPGGSLRLSCTASGFSLTDYYYMTWVRQAPGKGLEWVGFIDPDDDPYYATWAKGRFTISRDTSKNTVYLQMNSLRAEDTATYYCAGGDHNSGWGLDIWGQGTTVTVSS
notes: tied by name only
B7: 435-max (scFv)
scFv: EIVMTQSPSTLSASVGDRVIITCQASQSIGSSLAWYQQKPGKAPKLLIYTAANLASGVPSRFSGSRSGAEFTLTISSLQPDDFATYYCQNFATSDTVTFGQGTKLTVLGGGGGSGGGGSGGGGSGGGGSEVQLVESGGGLVQPGGSLRLSCKASGFSLNTNYWMCWVRQAPGKGLEWVGCMYTGSYNRAYYASWAKGRFTSSKDTSKNTVYLQMNSLRAEDTAVYYCAKGSNWYSDLWGQGTLVTVSS
notes: the scFv entry is used; also called Protein Nr; 945

Legend:
[1] = biological target: T1, recombinant human VEGF165 (human, UniProt P15692 27-191); assay: Biacore SPR, VEGF immobilized, pH 5
T1 construct: mature; Isoform VEGF165 of the entry; also called hVEGF165; hVEGF
T1 sequence (P15692 other isoform, or with tags, fused parts or gaps): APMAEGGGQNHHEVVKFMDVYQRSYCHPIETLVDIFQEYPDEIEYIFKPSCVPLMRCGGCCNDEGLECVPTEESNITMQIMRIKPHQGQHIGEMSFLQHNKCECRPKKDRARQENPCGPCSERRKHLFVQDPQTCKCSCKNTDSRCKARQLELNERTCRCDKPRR
Protocol: (§1) In this example, the Biacore-binding ability of scFvs was tested and the binding affinity was measured using the exemplary surface plasmon resonance method with BIAcore™-T100. The VEGF proteins, tested for binding by these scFv candidates, in this example and later examples include purified Escherichia coli-expressed recombinant human VEGF₁₆₅ (PeproTech EC Ltd.), recombinant human VEGF₁₂₁ (PeproTech EC Ltd.), recombinant human VEGF₁₁₀ (ESBATech AG), recombinant murine VEGF₁₆₄ (PeproTech EC Ltd.), recombinant rat VEGF₁₆₄ (Biovision), recombinant rabbit VEGF₁₁₀ (ESBATech AG), and recombinant human PLGF (PeproTech EC Ltd.). For the surface plasmon resonance experiment, carboxymethylated dextran biosensor chips (CM4, GE Healthcare) were activated with N-ethyl-N′-(3-dimethylaminopropyl) carbodiimide hydrochloride and N-hydroxysuccinimide according to the supplier's instructions. Each of the 6 different VEGF forms, as exemplified above, was coupled to 1 of the 4 different flow cells on a CM4 sensor chip using a standard amine-coupling procedure. […] The 4th flow cell of each chip was treated similarly except no proteins were immobilized prior to blocking, and the flow cell was used as in-line reference. […] Dissociation of the anti-VEGF scFv from the VEGF on the CM4 chip was allowed to proceed for 10 min at 25° C. Sensorgrams were generated for each anti-VEGF scFv sample after in-line reference cell correction followed by buffer sample subtraction. The apparent dissociation rate constant (kd), the apparent association rate constant (kₐ) and the apparent dissociation equilibrium constant (KD) were calculated using one-to-one Langmuir binding model with BIAcore T100 evaluation Software version 1.1.

[2] = biological target: T1, recombinant human VEGF165; assay: Biacore SPR, VEGF immobilized, pH 7.4
Protocol: as §1

[3] = biological target: T1, recombinant human VEGF165; assay: cell-based or functional assay
[4] = biological target: recombinant murine VEGF164 (mouse) (UniProt Q00731); assay: Biacore SPR, VEGF immobilized, pH 5
[5] = biological target: recombinant rat VEGF164 (rat) (UniProt P16612); assay: Biacore SPR, VEGF immobilized, pH 5
[6] = biological target: T1, recombinant human VEGF165; assay: VEGFR1/Fc competition ELISA on coated hVEGF165; ratio to Lucentis
Protocol: After 30-60 min of incubation at room temperature, the mixtures were transferred to the human VEGF₁₆₅ immobilized plate and incubated for 90 min. […] Optical density at 450 nm (OD 450 nm) was measured using a Sunrise microplate reader (Tecan). Data were analyzed as above, and EC₅₀ values were calculated from the dose-response curves of the scFvs.

[7] = biological target: T2, recombinant human VEGF121 (human, UniProt P15692 27-147); assay: Biacore SPR, VEGF immobilized, pH 5
T2 construct: mature; Isoform VEGF121 of the entry; also called hVEGF121
T2 sequence (looked up): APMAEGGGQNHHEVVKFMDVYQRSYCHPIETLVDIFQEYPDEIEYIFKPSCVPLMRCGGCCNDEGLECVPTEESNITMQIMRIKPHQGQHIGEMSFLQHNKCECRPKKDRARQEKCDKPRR
Protocol: as §1

[8] = biological target: T3, recombinant human VEGF110 (human, UniProt P15692-4 27-136, limits assumed); assay: Biacore SPR, VEGF immobilized, pH 5
T3 construct: Made in house; also called hVEGF110
T3 sequence (looked up): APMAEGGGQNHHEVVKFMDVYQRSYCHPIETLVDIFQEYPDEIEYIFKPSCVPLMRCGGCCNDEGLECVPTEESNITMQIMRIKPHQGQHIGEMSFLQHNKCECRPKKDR
Protocol: as §1

[9] = biological target: T1, recombinant human VEGF165; assay: Biacore SPR, VEGF immobilized, pH 5; remark: listed apart in the source
Protocol: as §1

[10] = biological target: T4, recombinant human PLGF (human, UniProt P49763-2 19-149, limits assumed); assay: Biacore SPR, PlGF immobilized, pH 5
T4 construct: Negative control; also called PIGF
T4 sequence (looked up): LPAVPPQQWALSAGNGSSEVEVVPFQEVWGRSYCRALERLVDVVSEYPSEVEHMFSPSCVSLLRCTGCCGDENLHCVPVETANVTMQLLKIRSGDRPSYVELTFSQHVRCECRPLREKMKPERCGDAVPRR
Protocol: as §1

[11] = biological target: T1, recombinant human VEGF165; assay: Biacore SPR, VEGF immobilized, pH 5; remark: listed apart in the source
Protocol: as §1, with “1.1. […]” for “1.1.”

[12] = biological target: recombinant murine VEGF164 (mouse) (UniProt Q00731); assay: Biacore SPR; ratio to hVEGF165
[13] = biological target: recombinant rat VEGF164 (rat) (UniProt P16612); assay: Biacore SPR; ratio to hVEGF165

| Binder | koff [1] [s⁻¹] | kon [1] [M⁻¹ s⁻¹] | koff [2] [s⁻¹] | kon [2] [M⁻¹ s⁻¹] | koff [4] [s⁻¹] | kon [4] [M⁻¹ s⁻¹] | koff [5] [s⁻¹] | kon [5] [M⁻¹ s⁻¹] | Rel. activity hVEGR1 comp. ELISA (EC50Luc[nM]/EC50test[nM]) [6] | koff [7] [s⁻¹] | kon [7] [M⁻¹ s⁻¹] | koff [8] [s⁻¹] | kon [8] [M⁻¹ s⁻¹] | koff [9] [s⁻¹] | kon [9] [M⁻¹ s⁻¹] | binding result [10] | relative value KdhVEGF165/KdmVEGF164 [12] | relative value kdhVEGF165/kdmVEGF164 [12] | relative value KdhVEGF165/KdmVEGF164 (rat block) [13] | relative value kdhVEGF165/kdmVEGF164 (rat block) [13] | other results |
| --- | --- | --- | --- | --- | --- | --- | --- | --- | --- | --- | --- | --- | --- | --- | --- | --- | --- | --- | --- | --- | --- |
| B1 | 0.00272 | 2.26e+06 | 0.000537 | 1.42e+06 | 0.0059 | 4.09e+06 | 0.00645 | 3.9e+06 | 13 | 0.000249 | 742000 | 0.000235 | 648000 | 0.00272 | 2.26e+06 | no binding |  |  |  |  | Rel. activity in HUVEC assay (EC50Luc[nM]/EC50test[nM]) [3]: 0.003 |
| B2 | 0.000226 | 1.2e+06 | 0.000167 | 1.17e+06 | 0.000152 | 1.64e+06 | 0.000203 | 1.36e+06 |  | 5.76e-05 | 1.13e+06 | 3.27e-05 | 1e+06 | 0.000226 | 1.2e+06 | no binding |  |  |  |  | Rel. activity in HUVEC assay (EC50Luc[nM]/EC50test[nM]) [3]: 0.0086 |
| B3 | 0.00114 | 623000 | 0.0108 | 3.52e+06 | 0.001 | 614000 | 0.000844 | 351000 | 2.9 | 0.000453 | 354000 | 0.000474 | 287000 | 0.00114 | 623000 | no binding |  |  |  |  |  |
| B4 |  |  |  |  | 0.00188 | 1.23e+06 | 0.00152 | 802000 |  |  |  |  |  |  |  |  | 1 | 1 | 0.8 | 1.2 | Kd [11]: 1.59 nM; koff [11]: 0.0018 s⁻¹; kon [11]: 1.13e+06 M⁻¹ s⁻¹; Kd [4]: 1.53 nM; Kd [5]: 1.89 nM |
| B5 |  |  |  |  | 0.00216 | 1.47e+06 | 0.0019 | 1.04e+06 |  |  |  |  |  |  |  |  | 1.8 | 1.4 | 1.5 | 1.6 | Kd [4]: 1.46 nM; Kd [5]: 1.82 nM |
| B6 |  |  |  |  | 0.000669 | 1.1e+06 | 0.000676 | 800000 |  |  |  |  |  |  |  |  | 0.9 | 0.6 | 0.7 | 0.6 | Kd [11]: 0.576 nM; koff [11]: 0.000409 s⁻¹; kon [11]: 711000 M⁻¹ s⁻¹; Kd [4]: 0.608 nM; Kd [5]: 0.845 nM |
| B7 | 0.000755 | 167000 | 0.000104 | 1.13e+06 |  |  |  |  | 0.00039 |  |  |  |  |  |  |  |  |  |  |  |  |
